For one experiment, the system named is PARP. The conditions noted are these: cited from earlier work.
The test system of experiment [1] is triple-negative breast cancers (TNBC). The following applies: TNBC patients, cited from earlier work.
Experiment [2] relates to OVCAR5 cell line xenograft. As to the kind of experiment: Human OVCAR5 cell line xenograft ovarian cancer mouse model, tumor growth. In kind it is in vivo. The following applies: 10 mg/kg on day 1. As to the method: FIG. 17A is a graph showing the effects on tumor growth in a human OVCAR5 cell line xenograft ovarian cancer mouse model for ^225Ac-labeled HER3 antibody, in a single dose of 0.2 μCi or 0.4 μCi, versus standard of care Bevacizumab (10 mg/kg), ^225Ac-labeled non-specific IgG control (0.4 μCi), and naked (cold) HER3 mAb control (10 μg). All agents/controls were dosed on day 1.
FIG. 17B is a graph showing the effects on tumor growth in a human OVCAR5 cell line xenograft ovarian cancer mouse model for ^177Lu-labeled HER3 antibody, in a single dose of 200 μCi or 400 μCi, versus standard of care Bevacizumab (10 mg/kg), ^177Lu-labeled non-specific IgG control (400 μCi), and naked (cold) HER3 mAb control (10 μg). All agents/controls were dosed on day 1.
A general note: Xenograft models place foreign cells or tissue in a host animal.

The target of a further experiment is T1, total HER3 (Homo sapiens, UniProt P21860).
T1 construct: host or cells: tumour biopsies of patients
The following applies: 40 mg/kg; cited from earlier work.

The target of another experiment is HER3 (Homo sapiens, UniProt P21860). The conditions noted are these: cited from earlier work.
Another experiment relates to HER3-expressing tumors. The conditions noted are these: 0.1 mg/kg and 0.3 mg/kg; cited from earlier work.
For a further experiment, the target named is T2, surface HER3 (Homo sapiens, UniProt P21860).
T2 construct: host or cells: tumour biopsies of patients
The following applies: across all dose levels tested (100-2000 mg); cited from earlier work.

The target in a further experiment is human recombinant HER3 (human, UniProt P21860 20-643). As to the kind of experiment: ELISA, plate coated with human recombinant HER3, serial dilutions 0-100 µg/ml, anti-human IgG F(ab')2-HRP secondary. How it is done: A secondary antibody (Goat Anti-human IgG F (ab′) 20-HRP) was added and incubated for 30 min on ice followed by color development using […] for 10 min.
On the technique in general: In an ELISA, binding on a coated surface is turned into a signal by an enzyme label.

Experiment [3] has as its system 22RV1 human prostate cancer line. As to the kind of experiment: Fluorescence flow cytometry cell binding assay, 22RV1. From the text: (§1) FIG. 14 is a graph showing the fluorescence flow cytometry cell binding assay results for naked (unlabeled) and DOTA-conjugated (specifically, p-SCN-Bn-DOTA-conjugated) anti-HER3 antibodies AT02 and AV-203, versus nonstained control, secondary antibody (SA) only control, and non-specific IgG primary antibody control, for three human prostate cancer lines, DU145, 22RV1 and LnCAP.

The test system of experiment [4] is LnCAP human prostate cancer line. As to the kind of experiment: Fluorescence flow cytometry cell binding assay, LnCAP.
From the text: as §1
Background: A flow cytometer gives signals particle by particle.

The test system of experiment [5] is DU145 human prostate cancer line. As to the kind of experiment: Fluorescence flow cytometry cell binding assay, DU145.
From the text: as §1

The subject of experiment [6] is ACHN human renal cancer cells xenograft. As to the kind of experiment: ACHN human renal cell carcinoma xenograft in Balb/c nude mice, tumor growth. The following applies: 100 μg on day 1, intravenously. The experiment is classed as in vivo, mouse. As to the method: In more detail, the experiment was performed as follows. Female Balb/c nude mice were subcutaneously injected with 5×10^6 ACHN human renal cancer cells (ATCC; CRL-1611). […] Drug treatments were administered orally for vehicle (PBS) and tivozanib or intravenously for unlabeled/unconjugated HER3 monoclonal antibody (HER3), HER3-ARC (Actinium-225 labeled HER3 antibody) and HER3-ADC (patritumab deruxtecan). Single agents or combinations were dosed as follows: vehicle (daily for 14 days), unlabeled/unconjugated HER3 antibody (100 μg on day 1), HER3-ADC (3 mg/kg on day 1 and 21), HER3-ARC (0.4 μCi on day 1 and 0.2 μCi on day 21), tivozanib (0.3 mg/kg daily for 14 days), tivozanib (0.3 mg/kg daily for 14 days) with HER3-ARC (0.4 μCi on day 16), and HER3-ARC (0.4 μCi on day 1) with tivozanib (0.3 mg/kg starting day 3, daily for 14 days). […] HER3-ARC was always administered in a total protein dose of 50 μg irrespective of the radiation dose. Tumor volumes were measured twice weekly by caliper and body weights were monitored. The mean tumor volume for each group was analyzed and graphed using GraphPad Prism software and statistical analysis is performed with Tukey's multiple comparisons test.

As to `NC(=O)c1cccc2cn(-c3ccc([C@@H]4CCCNC4)cc3)nc12` [niraparib], the IC50 values result in the experiment on PARP is given as “nanomolar range”. As for `O=C(c1cc(Cc2n[nH]c(=O)c3ccccc23)ccc1F)N1CCN(C(=O)C2CC2)CC1` [olaparib], the disease stabilization rate entry in experiment [1] (BRCA1/2-mutant vs non-mutant) is “higher disease stabilization rate in BRCA1/2-mutant compared to non-mutant patients”. In addition, in experiment [1] (either cohort), the sustained responses result is recorded as “no sustained responses”. For the molecule `CNCc1ccc(-c2[nH]c3cc(F)cc4c3c2CCNC4=O)cc1` [rucaparib], the IC50 values entry in the experiment on PARP is “nanomolar range”.

Turning to `Cn1ncnc1[C@H]1c2n[nH]c(=O)c3cc(F)cc(c23)N[C@@H]1c1ccc(F)cc1` [talazoparib], the IC50 values entry in the experiment on PARP was “picomolar range”. For `C[C@]1(c2nc3c(C(N)=O)cccc3[nH]2)CCCN1` [veliparib], the IC50 values entry in the experiment with PARP is on record as “nanomolar range”. For “Bevacizumab: standard of care agent; VEGF inhibitor [reference compound]”, the “antitumor efficacy (tumor growth)” value in experiment [2] is “minimal effect”. As for “LJM716: HER3-targeting antibody from Novartis”, in the experiment with total HER3, the “decrease in total HER3 levels, paired tumor biopsy samples” value is recorded as “three out of five”. Turning to lumretuzumab: HER3 antibody from Roche, the “downregulation of HER3” value in the experiment with HER3 (1-10 mg/kg) is “dose-dependent”. Also, the HER3 target downregulation result with HER3 (lowest dose 0.3 mg/kg) is recorded as “did not result in HER3 target downregulation”. Further, the “control of HER3-expressing tumors” value in the experiment on HER3-expressing tumors was “ineffective”. For the same molecule, the “downregulation of surface HER3 in serial tumor biopsies” value with surface HER3 is recorded as 92 % of patients.

B1: 225Ac-HER3-ARC (Actinium-225 labeled, p-SCN-Bn-DOTA-conjugated anti-HER3 IgG monoclonal antibody, heavy chain SEQ ID NO:77 and light chain SEQ ID NO:78) (antibody, V domains shown)
VH: QVQLVESGGGLVKPGGSLRLSCAASGFTFSDYAMSWIRQAPGKGLEWVSTISDGGTYTYYPDSVKGRFTISRDNAKNSLYLQMNSLRAEDTAVYYCAREWGDYDGFDYWGQGTLVTVSS
VL: DIQMTQSPSSLSASVGDRVTITCRASQEISGYLSWYQQKPGKAPKRLIYAASTLDSGVPSRFSGSGSGTEFTLTISSLQPEDFATYYCLQYDSYPYTFGQGTKLEIKR
modifications: conjugated to the chelator DOTA using p-SCN-Bn-DOTA and radiolabeled via chelation with Actinium-225; sites of conjugation not stated
notes: Antibody radioconjugate of m1; also called Ac225 labeled DOTA-conjugated anti-HER3 monoclonal antibody
Broadly, the EC50 is the concentration that produces a half-maximal response. For B1, the EC50 with human recombinant HER3 turned out to be 1.7 ng/mL.

B2: DOTA conjugated AV-203 (conjugate)
VH: QVQLVESGGGLVKPGGSLRLSCAASGFTFSDYAMSWIRQAPGKGLEWVSTISDGGTYTYYPDSVKGRFTISRDNAKNSLYLQMNSLRAEDTAVYYCAREWGDYDGFDYWGQGTLVTVSS
VL: DIQMTQSPSSLSASVGDRVTITCRASQEISGYLSWYQQKPGKAPKRLIYAASTLDSGVPSRFSGSGSGTEFTLTISSLQPEDFATYYCLQYDSYPYTFGQGTKLEIK
B2: the cell binding entry is “specifically and comparably bound” in [3]; “specifically and comparably bound” in experiment [4]; “specifically and comparably bound” in [5].

B3: AV-203: anti-HER3 monoclonal antibody from AVEO Oncology; heavy chain variable region SEQ ID NO:21, light chain variable region SEQ ID NO:22 (antibody, V domains shown)
VH: QVQLVESGGGLVKPGGSLRLSCAASGFTFSDYAMSWIRQAPGKGLEWVSTISDGGTYTYYPDSVKGRFTISRDNAKNSLYLQMNSLRAEDTAVYYCAREWGDYDGFDYWGQGTLVTVSS
VL: DIQMTQSPSSLSASVGDRVTITCRASQEISGYLSWYQQKPGKAPKRLIYAASTLDSGVPSRFSGSGSGTEFTLTISSLQPEDFATYYCLQYDSYPYTFGQGTKLEIK
As for B3, the cell binding entry in experiment [3] is “specifically and comparably bound”; in experiment [4] it was “specifically and comparably bound”; in experiment [5], “specifically and comparably bound”. Also, the “tumor growth (mean tumor volume)” value in experiment [6] is given as “no effect on tumor growth”.

B4: anti-HER3 IgG monoclonal antibody consisting of heavy chain SEQ ID NO:77 and light chain SEQ ID NO:78 (unmodified) (antibody, V domains shown)
VH: QVQLVESGGGLVKPGGSLRLSCAASGFTFSDYAMSWIRQAPGKGLEWVSTISDGGTYTYYPDSVKGRFTISRDNAKNSLYLQMNSLRAEDTAVYYCAREWGDYDGFDYWGQGTLVTVSS
VL: DIQMTQSPSSLSASVGDRVTITCRASQEISGYLSWYQQKPGKAPKRLIYAASTLDSGVPSRFSGSGSGTEFTLTISSLQPEDFATYYCLQYDSYPYTFGQGTKLEIKR
notes: IgG; Detected with an anti-human IgG secondary antibody; also called unmodified anti-HER3 mAb; unmodified anti-HER3 antibody
With B4, in the experiment with human recombinant HER3, the concentration for a half-maximal effect (EC50) was determined as 2.2 ng/mL.
